# Source: IntAct's records for PubMed 31515488
# B1: E3 ubiquitin-protein ligase MARCHF5 (Homo sapiens), Q9NX47 (parent)
# chain: MPDQALQQMLDRSCWVCFATDEDDRTAEWVRPCRCRGSTKWVHQACLQRWVDEKQRGNSTARVACPQCNAEYLIVFPKLGPVVYVLDLADRLISKACPFAAAGIMVGSIYWTAVTYGAVTVMQVVGHKEGLDVMERADPLFLLIGLPTIPVMLILGKMIRWEDYVLRLWRKYSNKLQILNSIFPGIGCPVPRIPAEANPLADHVSATRILCGALVFPTIATIVGKLMFSSVNSNLQRTILGGIAFVAIKGAFKVYFKQQQYLRQAHRKILNYPEQEEA
# partner: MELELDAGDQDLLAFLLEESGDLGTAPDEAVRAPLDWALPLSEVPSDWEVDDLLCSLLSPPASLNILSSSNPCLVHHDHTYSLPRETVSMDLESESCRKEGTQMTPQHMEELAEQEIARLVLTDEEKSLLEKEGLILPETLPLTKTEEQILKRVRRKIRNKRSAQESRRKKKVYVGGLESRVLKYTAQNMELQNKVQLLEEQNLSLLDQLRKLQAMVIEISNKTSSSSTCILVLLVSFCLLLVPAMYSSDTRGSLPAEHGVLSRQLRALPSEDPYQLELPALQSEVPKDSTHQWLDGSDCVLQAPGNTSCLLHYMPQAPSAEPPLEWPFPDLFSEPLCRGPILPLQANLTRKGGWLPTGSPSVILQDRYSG
# B2: Tripartite motif-containing protein 59 (Homo sapiens), Q8IWR1 (parent)
# chain: MHNFEEELTCPICYSIFEDPRVLPCSHTFCRNCLENILQASGNFYIWRPLRIPLKCPNCRSITEIAPTGIESLPVNFALRAIIEKYQQEDHPDIVTCPEHYRQPLNVYCLLDKKLVCGHCLTIGQHHGHPIDDLQSAYLKEKDTPQKLLEQLTDTHWTDLTHLIEKLKEQKSHSEKMIQGDKEAVLQYFKELNDTLEQKKKSFLTALCDVGNLINQEYTPQIERMKEIREQQLELMALTISLQEESPLKFLEKVDDVRQHVQILKQRPLPEVQPVEIYPRVSKILKEEWSRTEIGQIKNVLIPKMKISPKRMSCSWPGKDEKEVEFLKILNIVVVTLISVILMSILFFNQHIITFLSEITLIWFSEASLSVYQSLSNSLHKVKNILCHIFYLLKEFVWKIVSH
# partner: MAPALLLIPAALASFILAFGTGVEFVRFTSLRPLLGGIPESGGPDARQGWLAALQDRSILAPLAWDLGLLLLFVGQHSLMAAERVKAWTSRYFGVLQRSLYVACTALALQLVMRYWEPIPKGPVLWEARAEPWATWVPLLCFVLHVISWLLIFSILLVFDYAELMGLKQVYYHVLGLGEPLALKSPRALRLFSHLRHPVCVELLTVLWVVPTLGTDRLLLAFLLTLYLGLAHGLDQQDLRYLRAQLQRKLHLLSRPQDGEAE
# B3: UPF0193 protein EVG1 (Homo sapiens), Q9BZE7 (parent)
# chain: MASQKQMEVVTKGTGFRRRPKTITYTPGTCELLRVMMKESKLTNIQQRHIMDIMKRGDALPLQCSPTSSQRVLPSKQIASPIYLPPILAARPHLRPANMCQANGAYSREQFKPQATRDLEKEKQRLQNIFATGKDMEERKRKAPPARQKAPAPELDRFEELVKEIQERKEFLADMEALGQGKQYRGIILAEISQKLREMEDIDHRRSEELRKGLATT
# B4: MIF4G domain-containing protein (Homo sapiens), A9UHW6 (parent)
# chain: MGEPSREEYKIQSFDAETQQLLKTALKDPGAVDLEKVANVIVDHSLQDCVFSKEAGRMCYAIIQAESKQAGQSVFRRGLLNRLQQEYQAREQLRARSLQGWVCYVTFICNIFDYLRVNNMPMMALVNPVYDCLFRLAQPDSLSKEEEVDCLVLQLHRVGEQLEKMNGQRMDELFVLIRDGFLLPTGLSSLAQLLLLEIIEFRAAGWKTTPAAHKYYYSEVSD
# B5: Keratin-associated protein 5-9 (Homo sapiens), P26371 (parent)
# chain: MGCCGCSGGCGSSCGGCDSSCGSCGSGCRGCGPSCCAPVYCCKPVCCCVPACSCSSCGKRGCGSCGGSKGGCGSCGCSQCSCCKPCCCSSGCGSSCCQCSCCKPYCSQCSCCKPCCSSSGRGSSCCQSSCCKPCCSSSGCGSSCCQSSCCKPCCSQSRCCVPVCYQCKI
# partner: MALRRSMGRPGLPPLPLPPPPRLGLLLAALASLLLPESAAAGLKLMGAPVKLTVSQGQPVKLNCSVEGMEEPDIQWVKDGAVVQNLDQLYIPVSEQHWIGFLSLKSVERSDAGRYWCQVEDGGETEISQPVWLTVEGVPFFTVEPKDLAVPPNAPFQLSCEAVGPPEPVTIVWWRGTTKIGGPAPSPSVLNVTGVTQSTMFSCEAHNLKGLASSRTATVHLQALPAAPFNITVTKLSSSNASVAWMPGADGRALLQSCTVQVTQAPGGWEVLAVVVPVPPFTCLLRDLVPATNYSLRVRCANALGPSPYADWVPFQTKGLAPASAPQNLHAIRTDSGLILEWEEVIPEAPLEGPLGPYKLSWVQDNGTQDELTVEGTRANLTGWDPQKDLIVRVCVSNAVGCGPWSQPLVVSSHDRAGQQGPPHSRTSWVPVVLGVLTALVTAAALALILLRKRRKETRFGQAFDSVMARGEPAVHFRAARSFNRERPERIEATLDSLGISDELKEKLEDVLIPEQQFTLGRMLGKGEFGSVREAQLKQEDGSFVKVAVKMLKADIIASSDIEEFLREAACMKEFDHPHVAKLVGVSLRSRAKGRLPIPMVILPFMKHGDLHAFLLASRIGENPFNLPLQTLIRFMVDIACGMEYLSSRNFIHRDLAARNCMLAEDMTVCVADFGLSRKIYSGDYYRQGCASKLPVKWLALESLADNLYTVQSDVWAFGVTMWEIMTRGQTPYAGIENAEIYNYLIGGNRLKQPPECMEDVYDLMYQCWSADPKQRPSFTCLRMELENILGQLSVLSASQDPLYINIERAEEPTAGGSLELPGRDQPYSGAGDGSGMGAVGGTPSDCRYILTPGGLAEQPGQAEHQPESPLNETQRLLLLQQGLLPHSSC
# B6: Transmembrane protein 140 (Homo sapiens), Q9NV12 (parent)
# chain: MAGPRPRWRDQLLFMSIIVLVIVVICLMFYALLWEAGNLTDLPNLRIGFYNFCLWNEDTSTLQCHQFPELEALGVPRVGLGLARLGVYGSLVLTLFAPQPLLLAQCNSDERAWRLAVGFLAVSSVLLAGGLGLFLSYVWKWVRLSLPGPGFLALGSAQALLILLLIAMAVFPLRAERAESKLESC
# partner: B1 partner
# B7: Notch homolog 2 N-terminal-like protein A (Homo sapiens), Q7Z3S9 (parent)
# chain: MCVTYHNGTGYCKCPEGFLGEYCQHRDPCEKNRCQNGGTCVAQAMLGKATCRCASGFTGEDCQYSTSHPCFVSRPCLNGGTCHMLSRDTYECTCQVGFTGKECQWTDACLSHPCANGSTCTTVANQFSCKCLTGFTGQKCETDVNECDIPGHCQHGGTCLNLPGSYQCQCLQGFTGQYCDSLYVPCAPSPCVNGGTCRQTGDFTFECNCLPETVRRGTELWERDREVWNGKEHDEN
# partner: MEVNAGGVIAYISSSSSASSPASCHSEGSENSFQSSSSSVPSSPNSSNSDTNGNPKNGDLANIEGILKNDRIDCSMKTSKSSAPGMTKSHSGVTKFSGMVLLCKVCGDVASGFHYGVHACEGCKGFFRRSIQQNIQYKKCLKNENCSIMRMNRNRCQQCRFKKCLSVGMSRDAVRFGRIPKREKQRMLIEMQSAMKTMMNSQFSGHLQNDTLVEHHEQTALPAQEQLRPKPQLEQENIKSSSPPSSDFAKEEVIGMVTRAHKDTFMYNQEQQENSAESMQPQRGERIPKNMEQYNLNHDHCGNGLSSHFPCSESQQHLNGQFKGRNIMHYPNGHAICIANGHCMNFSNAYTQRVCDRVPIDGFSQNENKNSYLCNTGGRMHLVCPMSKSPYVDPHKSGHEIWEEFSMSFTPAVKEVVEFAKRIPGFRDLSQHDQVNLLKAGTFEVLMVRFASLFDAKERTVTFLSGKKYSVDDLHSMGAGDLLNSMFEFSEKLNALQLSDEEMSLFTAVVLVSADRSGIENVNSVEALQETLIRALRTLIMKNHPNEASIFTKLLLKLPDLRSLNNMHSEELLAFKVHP
# B8: Protein BTG1 (Homo sapiens), P62324 (parent)
# chain: MHPFYTRAATMIGEIAAAVSFISKFLRTKGLTSERQLQTFSQSLQELLAEHYKHHWFPEKPCKGSGYRCIRINHKMDPLIGQAAQRIGLSSQELFRLLPSELTLWVDPYEVSYRIGEDGSICVLYEASPAGGSTQNSTNVQMVDSRISCKEELLLGRTSPSKNYNMMTVSG
# B9: Myosin light polypeptide 6 (Homo sapiens), P60660 (parent)
# chain: MCDFTEDQTAEFKEAFQLFDRTGDGKILYSQCGDVMRALGQNPTNAEVLKVLGNPKSDEMNVKVLDFEHFLPMLQTVAKNKDQGTYEDYVEGLRVFDKEGNGTVMGAEIRHVLVTLGEKMTEEEVEMLVAGHEDSNGCINYEAFVRHILSG
# Variants of: B1
# Details: with creb3_human CREB3, O43889
row,Variant,effect of a mutation on the interaction
1,D202N,with no effect
2,T20A,with no effect

# Variants of: B2
# Details: with nrm_human NRM
row,Variant,effect of a mutation on the interaction
1,R258C,with no effect

# Variants of: B3
# Details: with ccdb1_human CCNDBP1, O95273
# ccdb1_human CCNDBP1, O95273, sequence (O95273 whole entry): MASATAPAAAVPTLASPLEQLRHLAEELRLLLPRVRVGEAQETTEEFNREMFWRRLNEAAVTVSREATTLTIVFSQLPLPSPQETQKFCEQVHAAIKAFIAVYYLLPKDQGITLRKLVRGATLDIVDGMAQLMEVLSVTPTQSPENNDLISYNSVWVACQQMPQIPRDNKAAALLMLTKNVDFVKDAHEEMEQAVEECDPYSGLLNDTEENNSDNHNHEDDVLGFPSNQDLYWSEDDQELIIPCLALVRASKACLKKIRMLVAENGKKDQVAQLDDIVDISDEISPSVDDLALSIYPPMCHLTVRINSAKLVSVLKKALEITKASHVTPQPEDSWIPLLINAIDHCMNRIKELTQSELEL
row,Variant,effect of a mutation on the interaction
1,M136L,with no effect

# Variants of: B4
# Details: with hgs_human HGS
row,Variant,effect of a mutation on the interaction
1,E160K,with no effect

# Variants of: B5
# Details: with tyro3_human TYRO3, Q06418
row,Variant,effect of a mutation on the interaction
1,Y40C,disrupting interaction strength

# Variants of: B6
# Details: with creb3_human CREB3, O43889
row,Variant,effect of a mutation on the interaction
1,A112E,with no effect

# Variants of: B7
# Details: with nr1d2_human NR1D2, Q14995
row,Variant,effect of a mutation on the interaction
1,A115T,with no effect
2,R74Q,with no effect

# Variants of: B8
# Details: with cnot8_human CNOT8, Q9UFF9
# cnot8_human CNOT8, Q9UFF9, sequence (Q9UFF9 whole entry): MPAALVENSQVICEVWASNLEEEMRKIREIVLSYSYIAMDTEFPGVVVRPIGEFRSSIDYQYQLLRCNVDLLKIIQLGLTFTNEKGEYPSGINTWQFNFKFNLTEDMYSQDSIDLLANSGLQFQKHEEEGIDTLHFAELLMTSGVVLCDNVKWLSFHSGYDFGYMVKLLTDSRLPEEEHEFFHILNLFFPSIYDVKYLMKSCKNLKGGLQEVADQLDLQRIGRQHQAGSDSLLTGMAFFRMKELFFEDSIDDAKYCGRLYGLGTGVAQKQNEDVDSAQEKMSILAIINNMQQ
row,Variant,effect of a mutation on the interaction
1,N139S,with no effect

# Variants of: B9
# Details: with ats12_human ADAMTS12, P58397
# ats12_human ADAMTS12, P58397, sequence (P58397 whole entry): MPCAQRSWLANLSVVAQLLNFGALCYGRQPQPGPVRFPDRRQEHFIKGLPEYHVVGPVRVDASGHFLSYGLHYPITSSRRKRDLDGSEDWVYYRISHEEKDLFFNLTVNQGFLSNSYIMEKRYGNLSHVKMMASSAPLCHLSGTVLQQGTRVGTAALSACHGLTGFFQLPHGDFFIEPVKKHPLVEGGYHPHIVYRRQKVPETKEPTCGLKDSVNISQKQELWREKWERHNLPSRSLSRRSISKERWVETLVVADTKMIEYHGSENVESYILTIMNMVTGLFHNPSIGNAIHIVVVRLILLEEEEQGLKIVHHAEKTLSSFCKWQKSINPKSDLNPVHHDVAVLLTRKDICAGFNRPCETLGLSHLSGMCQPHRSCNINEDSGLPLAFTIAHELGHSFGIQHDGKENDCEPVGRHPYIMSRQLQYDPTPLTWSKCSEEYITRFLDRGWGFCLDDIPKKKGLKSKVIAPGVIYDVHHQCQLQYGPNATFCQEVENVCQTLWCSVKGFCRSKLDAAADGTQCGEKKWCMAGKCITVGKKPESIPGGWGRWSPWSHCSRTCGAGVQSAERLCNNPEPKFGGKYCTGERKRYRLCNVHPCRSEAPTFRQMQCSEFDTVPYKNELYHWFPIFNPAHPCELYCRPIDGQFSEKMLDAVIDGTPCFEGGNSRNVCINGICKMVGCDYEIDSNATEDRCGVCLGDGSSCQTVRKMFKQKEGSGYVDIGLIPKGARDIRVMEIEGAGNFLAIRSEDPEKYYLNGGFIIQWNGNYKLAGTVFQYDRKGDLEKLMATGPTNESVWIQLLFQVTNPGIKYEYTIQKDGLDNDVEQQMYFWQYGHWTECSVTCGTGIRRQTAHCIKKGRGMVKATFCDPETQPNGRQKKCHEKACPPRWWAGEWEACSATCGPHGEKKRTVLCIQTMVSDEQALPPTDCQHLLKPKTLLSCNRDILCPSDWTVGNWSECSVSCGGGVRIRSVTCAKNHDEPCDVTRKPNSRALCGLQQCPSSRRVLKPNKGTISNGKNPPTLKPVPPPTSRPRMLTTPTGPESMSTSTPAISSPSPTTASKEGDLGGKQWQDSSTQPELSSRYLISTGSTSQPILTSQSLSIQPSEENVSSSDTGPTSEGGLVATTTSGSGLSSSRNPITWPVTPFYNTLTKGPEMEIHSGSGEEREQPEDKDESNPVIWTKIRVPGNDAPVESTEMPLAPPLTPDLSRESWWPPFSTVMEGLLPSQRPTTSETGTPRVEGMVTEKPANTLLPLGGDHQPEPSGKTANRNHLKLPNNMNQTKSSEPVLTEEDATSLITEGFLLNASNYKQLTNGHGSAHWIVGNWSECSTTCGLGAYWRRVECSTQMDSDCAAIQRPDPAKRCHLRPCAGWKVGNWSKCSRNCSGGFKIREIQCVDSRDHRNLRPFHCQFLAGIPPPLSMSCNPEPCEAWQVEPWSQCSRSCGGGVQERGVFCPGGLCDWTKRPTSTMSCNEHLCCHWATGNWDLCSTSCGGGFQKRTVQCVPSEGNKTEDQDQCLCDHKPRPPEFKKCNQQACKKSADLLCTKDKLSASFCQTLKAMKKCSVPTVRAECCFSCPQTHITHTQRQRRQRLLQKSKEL
row,Variant,effect of a mutation on the interaction
1,C138S,disrupting interaction strength

# Variants of: B9
# Details: with cpsf5_human NUDT21, O43809
# cpsf5_human NUDT21, O43809, sequence (O43809 whole entry): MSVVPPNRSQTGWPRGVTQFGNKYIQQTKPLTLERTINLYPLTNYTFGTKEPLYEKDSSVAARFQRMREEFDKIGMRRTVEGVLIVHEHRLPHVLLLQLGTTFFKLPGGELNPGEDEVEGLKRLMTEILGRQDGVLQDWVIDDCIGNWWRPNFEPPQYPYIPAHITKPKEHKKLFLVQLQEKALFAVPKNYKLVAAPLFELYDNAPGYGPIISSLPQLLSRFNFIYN
row,Variant,effect of a mutation on the interaction
1,C138S,disrupting interaction strength
